Laboratory results reported in paper PMC7214622, “Function of P2X4 Receptors Is Directly Modulated by a 1:1 Stoichiometric Interaction With 5-HT3A Receptors” (Frontiers in Cellular Neuroscience, 2020).

Molecular target: T1, rat P2X4 receptor with a C-terminal hemagglutinin (HA) tag (rat, UniProt P51577 1-388)
T1 construct: P2X4 subunit, rat (Rattus norvegicus), GenBank U47031.1; UniProt P51577 is printed for the rat P2X4 subunit in the modelling methods; The subunit ran at 70 kDa on SDS-PAGE, which the authors put down to glycosylation; also called P2X4 subunit; source: tsA201 cells, transfected (pcDNA3.1, PEI); Triton X-100 solubilised MEMBRANE fraction; eluted from anti-HA agarose beads with HA peptide; not …
T1 sequence (looked up): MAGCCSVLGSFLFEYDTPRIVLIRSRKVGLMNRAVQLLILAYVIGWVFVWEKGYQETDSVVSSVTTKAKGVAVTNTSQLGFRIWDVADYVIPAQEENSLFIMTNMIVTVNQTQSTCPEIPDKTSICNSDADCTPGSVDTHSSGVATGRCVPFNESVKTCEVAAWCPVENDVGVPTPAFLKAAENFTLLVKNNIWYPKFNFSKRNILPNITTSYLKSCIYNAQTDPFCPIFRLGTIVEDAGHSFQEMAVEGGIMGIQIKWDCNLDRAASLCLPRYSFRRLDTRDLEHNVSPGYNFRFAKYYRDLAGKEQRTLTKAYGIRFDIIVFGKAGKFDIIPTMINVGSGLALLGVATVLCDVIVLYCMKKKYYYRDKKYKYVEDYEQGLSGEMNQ
Assay: atomic force microscopy imaging; complexes co-purified by the HA tag from co-transfected tsA201 cells, adsorbed onto mica for 15 min, dried and imaged in intermittent contact mode; histograms of molecular volumes fitted by a double Gaussian; without ATP, or with 100 μM ATP for 30 min in solution before adsorption
Conditions: partners not purified

B1: human 5-HT3A receptor with a C-terminal MYC/His-6 epitope tag (receptor, UniProt P46098 24-478, looked up)
chain: RRSRNTTRPALLRLSDYLLTNYRKGVRPVRDWRKPTTVSIDVIVYAILNVDEKNQVLTTYIWYRQYWTDEFLQWNPEDFDNITKLSIPTDSIWVPDILINEFVDVGKSPNIPYVYIRHQGEVQNYKPLQVVTACSLDIYNFPFDVQNCSLTFTSWLHTIQDINISLWRLPEKVKSDRSVFMNQGEWELLGVLPYFREFSMESSNYYAEMKFYVVIRRRPLFYVVSLLLPSIFLMVMDIVGFYLPPNSGERVSFKITLLLGYSVFLIIVSDTLPATAIGTPLIGVYFVVCMALLVISLAETIFIVRLVHKQDLQQPVPAWLRHLVLERIAWLLCLREQSTSQRPPATSQATKTDDCSAMGNHCSHMGGPQDFEKSPRDRCSPPPPPREASLAVCGLLQELSSIRQFLEKRDEIREVARDWLRVGSVLDKLLFHIYLLAVLAYSITLVMLWSIWQYA
notes: 5-HT3A subunit, human (Homo sapiens), GenBank AK304630.1; UniProt P46098 is printed for the human 5-HT3A subunit in the modelling methods; The subunit ran at 55 kDa on SDS-PAGE; also called 5-HT3A subunit; 5-HT3A-MYC/His6; source: tsA201 cells, transfected (pcDNA3.1, PEI); Triton X-100 solubilised MEMBRANE fraction; eluted from HisPur Ni-NTA agarose beads with 200 mM imidazole; not shown: MYC, …
With B1 as the binder, how does the “stoichiometry N” value read?
The value was 1.
